Target: T1, SUMO-His tagged HORMAD1 HORMA (residues 1-235) (mouse, UniProt Q9D5T7 1-235)
T1 construct: HORMAD1, mouse, HORMA domain, amino acids 1-235, from codon-optimized synthetic DNA; also called the HORMA domain of HORMAD1; source: E. coli BL21(DE3), purified (Talon, ion exchange, SEC); not shown: SUMO, N-terminal, kept; His, N-terminal, kept
T1 sequence (looked up): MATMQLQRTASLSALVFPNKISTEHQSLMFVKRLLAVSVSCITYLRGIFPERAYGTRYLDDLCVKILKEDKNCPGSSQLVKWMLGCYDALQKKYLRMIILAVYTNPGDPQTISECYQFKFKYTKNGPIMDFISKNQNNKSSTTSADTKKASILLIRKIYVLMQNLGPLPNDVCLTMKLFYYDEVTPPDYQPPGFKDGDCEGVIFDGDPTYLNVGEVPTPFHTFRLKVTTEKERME
Assay: pull-down; amylose pull-down; MBP-tagged IHO1 truncations as baits at 1 µM with 12 µM SUMO-His HORMAD1 HORMA; 20 mM HEPES pH 7.5, 100 mM NaCl, 5% glycerol, 1 mM TCEP, 0.1% Tween20; 8 °C; Coomassie and immunoblot
Details: both partners purified

B1: MBP-tagged IHO1 truncation, residues 359-574 (domain or fragment, mouse, UniProt Q6PDM4 359-574, looked up)
chain: KNWVMTTRSVSNHFSNLPSQRAGNGQGLMAQGASQRDVSKFEARVKNACPEYGPQSMCSFDSLEQSATEQKGRPCRKRRRGKKQQPQRSKRGGLLDRKQGQTSKAACAFIARHHCPQSPVCDPQGPLICWLTPRSSTKSTCHILGGTGETSQTARAAQGNLVQHSQRSSTDSSSQGDQQINWFSDLSLENLEPPQCKKGGTNLLCDPDFDSSDDNF
notes: The MBP tag is 3C HRV cleavable but was kept for the amylose pull-down; source: High Five insect cells (baculovirus), purified (MBP-trap, Resource Q, Superdex200); not shown: MBP, N-terminal, kept
B1: binds.
